According to IntAct's records for PubMed 16511572:

B1: 14-3-3 protein gamma (Homo sapiens), P61981 (parent)
chain: MVDREQLVQKARLAEQAERYDDMAAAMKNVTELNEPLSNEERNLLSVAYKNVVGARRSSWRVISSIEQKTSADGNEKKIEMVRAYREKIEKELEAVCQDVLSLLDNYLIKNCSETQYESKVFYLKMKGDYYRYLAEVATGEKRATVVESSEKAYSEAHEISKEHMQPTHPIRLGLALNYSVFYYEIQNAPEQACHLAKTAFDDAIAELDTLNEDSYKDSTLIMQLLRDNLTLWTSDQQDDDGGEGNN
partner: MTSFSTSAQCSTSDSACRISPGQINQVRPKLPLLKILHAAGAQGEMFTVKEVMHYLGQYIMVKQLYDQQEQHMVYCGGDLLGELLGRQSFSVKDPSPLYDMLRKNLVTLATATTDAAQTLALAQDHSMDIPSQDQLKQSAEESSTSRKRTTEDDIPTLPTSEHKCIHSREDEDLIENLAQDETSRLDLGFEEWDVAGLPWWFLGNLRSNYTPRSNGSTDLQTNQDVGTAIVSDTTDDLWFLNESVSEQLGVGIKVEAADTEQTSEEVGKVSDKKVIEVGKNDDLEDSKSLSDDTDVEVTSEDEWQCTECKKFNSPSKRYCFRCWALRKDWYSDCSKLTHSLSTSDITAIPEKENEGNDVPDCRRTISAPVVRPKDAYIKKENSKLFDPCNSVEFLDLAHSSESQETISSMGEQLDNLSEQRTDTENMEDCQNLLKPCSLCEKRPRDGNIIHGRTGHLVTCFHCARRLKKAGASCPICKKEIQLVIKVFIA
B2: Protein Mdm4 (Homo sapiens), O15151 (parent)
chain: B1 partner
partner: B1 chain

Variants of: B1
Conditions: with mdm4_human MDM4, O15151
MVDREQLVQKARLAEQAERYDDMAAAMKNVTELNEPLSNEERNLLSVAYENVVGARRSSWRVISSIEQKTSADGNEKKIEMVRAYREKIEKELEAVCQDVLSLLDNYLIKNCSETQYESKVFYLKMKGDYYRYLAEVATGEKRATVVESSEKAYSEAHEISKEHMQPTHPIRLGLALNYSVFYYEIQNAPEQACHLAKTAFDDAIAELDTLNEDSYKDSTLIMQLLRDNLTLWTSDQQDDDGGEGNN [K50E] was tested, and the “effect of a mutation on the interaction” value was “disrupting interaction”.

Variants of: B2
Conditions: with 1433g_human YWHAG
For MTSFSTSAQCSTSDSACRISPGQINQVRPKLPLLKILHAAGAQGEMFTVKEVMHYLGQYIMVKQLYDQQEQHMVYCGGDLLGELLGRQSFSVKDPSPLYDMLRKNLVTLATATTDAAQTLALAQDHSMDIPSQDQLKQSAEESSTSRKRTTEDDIPTLPTSEHKCIHSREDEDLIENLAQDETSRLDLGFEEWDVAGLPWWFLGNLRSNYTPRSNGSTDLQTNQDVGTAIVSDTTDDLWFLNESVSEQLGVGIKVEAADTEQTSEEVGKVSDKKVIEVGKNDDLEDSKSLSDDTDVEVTSEDEWQCTECKKFNSPSKRYCFRCWALRKDWYSDCSKLTHSLSTSDITAIPEKENEGNDVPDCRRTIGAPVVRPKDAYIKKENSKLFDPCNSVEFLDLAHSSESQETISSMGEQLDNLSEQRTDTENMEDCQNLLKPCSLCEKRPRDGNIIHGRTGHLVTCFHCARRLKKAGASCPICKKEIQLVIKVFIA [S367G], the “effect of a mutation on the interaction” value was “disrupting interaction”. In the case of P369G, the “effect of a mutation on the interaction” value is reported as “disrupting interaction”.
